Test results: US20020058275A1, “Compositions, kits, and methods for effecting adenine nucleotide modulation of DNA mismatch recognition proteins” (Thomas Jefferson University, priority 1997, published 2002)

Biological target: T1, IVTT-hMSH4 (Homo sapiens, UniProt O15457)
T1 construct: made in house; host or cells: in vitro transcription/translation, TNT coupled reticulocyte lysate (Promega), insert in pCR 2.1
T1 sequence (O15457 1-936): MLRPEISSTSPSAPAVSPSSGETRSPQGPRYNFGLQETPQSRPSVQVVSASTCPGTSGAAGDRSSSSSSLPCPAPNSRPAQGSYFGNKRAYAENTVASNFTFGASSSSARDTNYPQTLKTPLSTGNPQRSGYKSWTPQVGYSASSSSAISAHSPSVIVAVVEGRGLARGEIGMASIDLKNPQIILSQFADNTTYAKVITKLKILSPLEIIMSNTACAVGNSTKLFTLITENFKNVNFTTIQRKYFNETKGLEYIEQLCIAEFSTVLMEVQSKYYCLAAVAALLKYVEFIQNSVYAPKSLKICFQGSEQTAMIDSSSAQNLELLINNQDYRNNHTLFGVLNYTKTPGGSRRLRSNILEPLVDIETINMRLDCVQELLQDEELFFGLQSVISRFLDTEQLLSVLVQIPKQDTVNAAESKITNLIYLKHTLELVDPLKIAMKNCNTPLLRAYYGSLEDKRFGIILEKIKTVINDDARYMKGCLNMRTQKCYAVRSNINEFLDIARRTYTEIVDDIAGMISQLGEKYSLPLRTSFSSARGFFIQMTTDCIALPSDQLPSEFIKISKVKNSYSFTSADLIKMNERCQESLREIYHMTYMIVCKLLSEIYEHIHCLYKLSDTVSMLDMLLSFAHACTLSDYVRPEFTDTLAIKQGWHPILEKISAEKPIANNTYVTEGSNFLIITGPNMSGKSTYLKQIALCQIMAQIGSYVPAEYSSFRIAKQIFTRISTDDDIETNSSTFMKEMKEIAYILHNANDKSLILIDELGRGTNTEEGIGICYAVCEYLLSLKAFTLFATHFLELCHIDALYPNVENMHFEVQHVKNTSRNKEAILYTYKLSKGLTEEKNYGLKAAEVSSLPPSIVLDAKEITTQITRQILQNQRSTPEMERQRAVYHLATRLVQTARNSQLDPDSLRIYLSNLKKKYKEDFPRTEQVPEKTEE
Experiment: GST fusion protein interaction assay
Assay type: binding
Settings: GST fusion protein as bait
Method: 500 microliters taken from a 5 milliliter overnight starter culture of cells which expressed an hMSH2-, hMSH3-, hMSH5-, or hMSH6-pGEX-fusion protein with (or non-fused pGEX as a negative control) was inoculated into 50 milliliters of Luria broth which contained 50 micrograms per milliliter ampicillin, and this culture was grown until the optical density at 600 nanometers was about 0.5. Protein expression was induced by addition of 0.1 millimolar (final concentration) IPTG for 2 hours at 30° C. Cells were pelleted and resuspended in 750 microliters of phosphate buffered saline containing protease inhibitors. A 10 minute digestion on ice using 1 milligram per milliliter lysozyme was then performed. After the addition of 0.2% (v/v) Triton X-100 and 1 millimolar dithiothreitol (final concentrations), the lysate was snap-frozen in liquid nitrogen and thawed twice. DNaseI (200 units per milliliter; Boehringer Mannheim, Germany) digestion was performed using the thawed lysate for 30 minutes on ice, after which cell debris was removed by centrifugation at 14,000 rpm at 4° C. for 30 minutes in a benchtop microfuge. […]

B1: hMSH5: human MutS homolog, putative 834-amino-acid protein encoded by clone b29 (SEQ ID NO: 29) (protein)
chain: MASLGANPRRTPQGPRPGAASSGFPSPAPVPGPREAEEEEVEEEEELAEIHLCVLWNSGYLGIAYYDTSDSTIHFMPDAPDHESLKLLQRVLDEINPQSVVTSAKQDENMTRFLGKLASQEHREPKRPEIIFLPSVDFGLEISKQRLLSGNYSFIPDAMTATEKILFLSSIIPFDCLLTVRALGGLLKFLGRRRIGVELEDYNVSVPILGFKKFMLTHLVNIDQDTYSVLQIFKSESHPSVYKVASGLKEGLSLFGILNRCHCKWGEKLLRLWFTRPTHDLGELSSRLDVIQFFLLPQNLDMAQMLHRLLGHIKNVPLILKRMKLSHTKVSDWQVLYKTVYSALGLRDACRSLPQSIQLFRDIAQEFSDDLHHIASLIGKVVDFEGSLAENRFTVLPNIDPEIDEKKRRLMGLPSFLTEVARKELENLDSRIPSCSVIYIPLIGFLLSIPRLPSMVEASDFEINGLDFMFLSEEKLHYRSARTKELDALLGDLHCEIRDQETLLMYQLQCQVLARAAVLTRVLDLASRLDVLLALASAARDYGYSRPRYSPQVLGVRIQNGRHPLMELCARTFVPNSTECGGDKGRVKVITGPNSSGKSIYLKQVGLITFMALVGSFVPAEEAEIGAVDAIFTRIHSCESISLGLSTFMIDLNQVAKAVNNATAQSLVLIDEFGKGTNTVDGLALLAAVLRHWLARGPTCPHIFVATNFLSLVQLQLLPQGPLVQYLTMETCEDGNDLVFFYQVCEGVAKASHASHTAAQAGLPDKLVARGKEVSDLIRSGKPIKPVKDLLKKNQMENCQTLVDKFMKLDLEDPNLDLNVFMSQEVLPAATSIL
modifications: left off: a dimerising Fc or GST; large carriers; small tags and cut ends
interaction with IVTT-hMSH4: significant interaction
